Measured values reported in the supplement of paper PMC10126150.
± gives the standard deviation of the averaged measurements.

Test system: ATP
Experiment: switch fluorescence ratio, 500 uM ATP over buffer (Cy3 cluster intensity, sum of 5 cycles each) (fold (ratio)); higher = stronger signal-on switching upon ATP binding; sequences stand for … in TCGTCGGCAGCGTCAGATGTGTATAAGAGACAGTTTTTTTTTTTTTTTTTTTTTTTTT…TC
Conditions: aptamer strand: ATP DNA aptamer (quencher-CACCTGGGGGAGTATTGCGGAGGAAGG + anchor), 100 nM annealed; ATP concentration: 500 uM
Outline: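 Switching-strand clusters labelled with Cy3 on a modified Illumina MiSeq flow-cell were annealed to 100 nM quencher-labelled ATP aptamer, imaged in selection buffer, and re-imaged after 15 min with 500 uM ATP at 22 °C. This was done over five cycles with NaOH stripping and re-annealing in between. The fluorescence ratio is summed target-cycle over summed buffer-cycle Cy3 intensity per cluster, averaged per switch-domain sequence, excluding clusters outside 100-1000 RFU.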
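Further: ATP exposure 15 min at 22 °C before imaging.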

Sequence	switch fluorescence ratio
AGCAGTGTGC	0.9981 ± 0.0027
AGCATACGTT	1.16 ± 0.051
AGCATATCGT	1.04 ± 0.033
AGCATATGAA	1.02 ± 0.071
AGCATGGTTT	1.02 ± 0.029
AGCATGTGGC	0.991 ± 0.016
AGCATTACCG	1.165 ± 0.0045
AGCATTATCT	1.09 ± 0.03
AGCATTTATA	0.981 ± 0.016
AGCATTTTTG	1.024 ± 0.0035
AGCCAGAGAC	1.07 ± 0.036
AGCCAGATTC	0.975 ± 0.036
AGCCAGGATT	0.9722 ± 0.0083
AGCCATTATT	0.976 ± 0.02
AGCCCCGGCT	0.967 ± 0.045
AGCCCGAGGG	0.989 ± 0.065
AGCCCGTTTG	0.964 ± 0.053
AGCCGCCGGG	1.04 ± 0.013
AGCCGTGATG	1.06 ± 0.048
AGCCTTAATT	1 ± 0.025
AGCCTTACGT	1.115 ± 0.0039
AGCCTTTACA	0.994 ± 0.011
AGCGAATTTT	0.999 ± 0.017
AGCGAGGGGA	1.04 ± 0.02
AGCGAGTGGC	0.991 ± 0.03

Sequence	switch fluorescence ratio
AGCGATAGTA	1.07 ± 0.019
AGCGATGCGG	0.9867 ± 0.0023
AGCGATTATA	0.991 ± 0.0037
AGCGATTTTT	1.01 ± 0.053
AGCGCAATGA	3 ± 0.32
AGCGCATGTG	0.996 ± 0.013
AGCGGAACCC	1.03 ± 0.023
AGCGGATTGT	1 ± 0.02
AGCGGCATGT	0.978 ± 0.077
AGCGGCCTG	1.01 ± 0.056
AGCGGGGGAT	1.01 ± 0.027
AGCGGGGGGT	1.03 ± 0.033
AGCGGGGGTA	1.01 ± 0.034
AGCGGGGTTC	1.023 ± 0.0049
AGCGGGTAGA	0.986 ± 0.02
AGCGGGTTAC	1.09 ± 0.06
AGCGGGTTCG	1 ± 0.054
AGCGGTATGC	0.9804 ± 0.0073
AGCGGTTATT	1.004 ± 0.0044
AGCGGTTTTC	0.994 ± 0.033
AGCGTAGAGC	1.03 ± 0.04
AGCGTCATGC	1.04 ± 0.048
AGCGTCGTTC	1.03 ± 0.023
AGCGTTTCCG	0.99 ± 0.028
AGCGTTTCGC	0.996 ± 0.013
